Details: Equus caballus; pH 7; Thermal; CD; CAPS buffer; transition: 2; reversible: yes

Cytochrome c wild type, P00004, sequence (P00004 whole entry): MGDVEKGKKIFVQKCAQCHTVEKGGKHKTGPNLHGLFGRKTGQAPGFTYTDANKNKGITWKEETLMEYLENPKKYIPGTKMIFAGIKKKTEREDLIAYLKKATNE

Cytochrome c wild type, P00004
Tm: 83.4 °C
heat capacity change of unfolding: 1.3 kcal/mol/K
unfolding enthalpy (calorimetric): 321 kJ/mol

From FireProtDB (doi:10.1093/jb/mvy087)
